Measured values from the DeepSol protein solubility set.

Assay: soluble on expression in E. coli; label from the status in PepcDB or PDB records

| Sequence | soluble on expression in E. coli |
| --- | --- |
| MGSDKIHHHHHHMLHGKVLVAQGGGPTAVINQSMVGAVLESRKFRNVDLVYGAHHGVRGIVNEDFLDLTQETSHNLEMVAQTPSSGLGSTRDKPDLKYCHEIFEVLKAHGIAYFFYIGGNDSSDTVRIVSEEARKAGYPLRCIHIPKTIDNDLVLNDHTPGFPSAARFVAQAFMGVNLDNAALRGIYLAVVMGRHAGFLTAASALGKKFPEDGPHLIYIPERTFRVDSFLTDVKATYDKYGRCVVALSEGIHDEDGAPIITKLSKATEKDAHGNIQLSGTGALSDLLCEEIKGKLGIKRVRGDTFGYLQRSFIGCVSDVDQREAREVGEKAVQFAMWGDQDGSVTIQRTGFYSVDYKLLPLAAVAGKTRVMEDHFIAESGTDVTDSFRMYLRPLLGSGMPDAFRLRLNSVPRILKK | not soluble |
| MSLDAVDGVRLEEGDAIDWIVFDRPQAANSFSATLLEQFSALVKDRQANGAPVLGIRGSGRGFSSGMDLGEYNATSGPTSDVLRLSSYVERWLDLWRHPKPVIVAVHGYCIGVAAQLASFADILVVAEDAMISEPTIPIGGGFIAPTWVSHVGSRHAKEFAFLPGNRIDGRMAAAWGWANCAVPASEVIACCESLAQRMKLMPPAVLAMKKRSINRAMEAAGFHAAASAIAESDALLHLEPEVTAIRNRLRTEDLKAVVGSYAGESSQEIFQREGHHHHHH | soluble |
| MSLADPDGGERSRRAARAASLSSSSRPTSVSAKQPCRVKFICRVLRPVVQGFLTSLGYRAAIGRAPSARQLRDYLLVPEVTRLHAENYGFYGRRKMHALMRRQGWVIGRDQTERLMRLAGVRGVRKSKRVLTTHSDKTTVLPADLVNRRFTAPAPRRLWVCDVTYVATWSGFAYVAFVTDVYSRRIVGWNVAATLRSEILPMQALDMAAWGAGGDLTSLIHHADHGSNSEGHHHHHH | soluble |
| MGSDKIHHHHHHMMKMQVVIASGKGGVGKSSITASLLYLLKDEYKLIAVDADAEAPNLGLLLGVTEWEIEREHIGAKIARINPESCIRCGLCQMRCPYECIYVDEEGNYVVNELTCEGCNVCGLVCPVPGTITLEEVRSGIIRKATTKYGFPIISAQLDVGKPESGKLVTEEKEWASKIMKEEGLEHMIVDSAAGIGCQVIASVGGADVAILIAEPTPASLSDVQRVYKVVQHFREPAYLIINKADINPGFTKLREWAESEGIPILGEVPYDSSIPRSMSMLKPFVEAFPDSKASEAIRGIAERIKEEILKG | not soluble |
| MHHHHHHSSGVDLGTENLYFQSMIAKSFYDLSAINLDGEKVDFNTFRGRAVLIENVASLCGTTTRDFTQLNELQCRFPRRLVVLGFPCNQFGHQENCQNEEILNSLKYVRPGGGYQPTFTLVQKCEVNGQNEHPVFAYLKDKLPYPYDDPFSLMTDPKLIIWSPVRRSDVAWNFEKFLIGPEGEPFRRYSRTFPTINIEPDIKRLLKV | soluble |
| MSLNLTFKKKSFFFKLSSKVDNSNTTYNYKSGWIIKLKNIEKGVGFGEVNPLRKHDLDACQIQLNQIPKYVNSKNISELIKNFHPCIQSAINSALAEIERKINFQENYYFNEIDQTAILLDPHNALKELIILKGNKLLNKKSLTIKWKVGIQDNFSEEKTLIEILNHLKSNIKLRIDANGSWERETANRWVDILKDIENIDWLEQPLSKDDIEGLKELNKKMPIALDESLLKYPYLINEWDGWQIRRPSQERNPMQLLKELKDKKGFRSLSTSFETGIGRRWLFHLSSLQLLGLTPKVPGLALKKNPNSFLFQNDAQKIWDQLEGHHHHHH | not soluble |
| MGSDKIHHHHHHMKMFKLEEQKLKDLGAIITTNEIKQQPELWLETYEIYKSNKEKLSRFIDTISNNHGQFRVIFTGAGTSAYIGNSILPYLKNKNDIRKYIFEAIPTTDIVSNPYDYLKKDIPTLLISFARSGNSPESLAALNLGNKIVDNFYHLAITCNPEGELAKMTKNDENNYLLLMPSKSNDEGFAMTGSFSCMMLSAMLIFDSLEDDVEKSYINAIIEMGRNVIDRKDEIHELINKDFDRVVYLGSGGLGGLTQEAQLKLLELTAGKISTVYDSPMGFRHGPKSFIDENTLVFEFVSNCLYTRKYDLDVLEEIKRDKIAKFTCAVSVENENNFSGTKFEFKEKYNKLPDVYLAMPYILFAQTIALFVSVKVGNKPDTPSATGTVNRVVKGVTIYEY | not soluble |
| MAHHHHHHMQWKKDDLFEGLRKLPRTPGELFGHRNKLNFILQKRFFIAPDMVELALNRQNGEQFNRCYAKLVMQAVAKFNNTTRSQLKVRVDPRLPKGLQLIQPDDKDTGANLKSKKSEKAASGRLNAFSNTTSGQQRKPQQRQQSRYCSPQSGGVSPRVVMPIDPAERDCLYATYLRARTPQSGTPDYSDMMLQSPSCATDGKTTMFSEDGSSALRSATRRSAGDVHFATPPVFKGFERTLELTPADSPTESLPLHF | not soluble |
| MLKKRFYILLFFCLLLGGNVNSSTVDKGDNNAPFENKRTETDYLPIADPFVMLYNNKYYAYGTGGTVNEGFACFSSDDLKNWKRERQALSADDSYGKWGFWAPEVYYIQSKKKFYMFYSVEEHICVATSDSPVGPFRQESKQPIWEEKSIDTSLFIDDDGTPYLYFVRFTDGNVIWVAQMTDDLMKIKKETLSECIKAEEPWELLQAKVAEGPSVLKKKGMYYLIYSANHYQNKGYGVGYATSKSPMGPWTKYDKNPLLQGDESTGLVGTGHGAPFQCKDGSWKYIFHAHWNKEKIHPRTSYFKDFTISKQGVVSITGKVIKPKVIK | not soluble |
| MSLTASDQFNSTHSAVDQYAELVLHNGRMYTLDPAQPWADAVAIRQGKLIAVGSLASLASLIGPNTRQHDLDGAFCMPGLHDMHTHPDLALAPRYADDLDVGIEDPTPEQLAAAIHAYADSHPGDGWIYGQYWVRYTFREAGLTPGREWLDSVMPHRPVALLDRMWGTMMVNSKALELAGIDRHTSDPRNGYLERDELTGEPNGLLIDGAYALIHAAMPPTPVSVLRRAYRDGVHFQTSRGVTATKYVHVCENRLQALKELDDAGELTLRVEAAISWQDDIFPVRRRWELLSGERHFYRSARLSANAVKFHFDGTVEPKSSYLLTPWPEESSWRGKLNLTPEHITDMVVDMDKRGLRVIAHCTGDGASDVFLDAVAEARRRNGNSGIRHQCAHSTLLHPGNLKRFQALDVIAEFSPAAWYPTPFASGARSGYGQERLKRIYDFKGVLAAGGIAVFGTDWPVASIDPWLALETMVTRQNPWNQEPDTFGDPISLEQALQVATLNGAHAMGLEHLTGSLEAGKSADLIVLDRDLFAQGARNYIHHTQVQLTFVEGQLVYDRQGTEGHHHHHH | not soluble |
| MKEYLKEKAHQLPLTPGVYLMKDATDTIIYVGKAKKLKNRVSSYFINSNQHSRKTMRLVKQIIDFDVLHTDTELDALLLECQLIQQYRPRYNRQMNAYEQYSYVSVAVNERQLEIKLLNIPTKENCFGPYSIRRKLNRLKIILDSIYDLVPTNYWHQTFQKESAIPTELFQQELFDFFHNQGREPIKRIAQQMQEAAEKQAFEKAAKLKEDWLFLTRFANQNQRISQANQRDWQLMWLPCQKKIKYYLIYQGLVVATRVVTKQTFQKYSPLELAKKIMPKKPPKTIEHYSKQQVDFLNILYGYISRHPECHLENLTIEKA | not soluble |
| AVNGKGMNPDYKAYLMAPLKKIPEVTNWETFENDLRWAKQNGFYAITVDFWWGDMEKNGDQQFDFSYAQRFAQSVKNAGMKMIPIISTHQCGGNVGDDCNVPIPSWVWNQKSDDSLYFKSETGTVNKETLNPLASDVIRKEYGELYTAFAAAMKPYKDVIAKIFLSGGPAGELRYPSYTTSDGTGYPSRGKFQAYTEFAKSKFRLWVLNKYGSLNEVNKAWGTKLISELAILPPSDGEQFLMNGYLSMYGKDYLEWYQGILENHTKLIGELAHNAFDTTFQVPIGAKIAGVHWQYNNPTIPHGAEKPAGYNDYSHLLDAFKSAKLDVTFTCLEMTDKGSYPEYSMPKTLVQNIATLANEKGIVLNGENALSIGNEEEYKRVAEMAFNYNFAGFTLLRYQDVMYNNSLMGKFKDLLGVTPVMQTIVVKNVPTTIGDTVYITGNRAELGSWDTKQYPIQLYYDSHSNDWRGNVVLPAERNIEFKAFIKSKDGTVKSWQTIQQSWNPVPLKTTSHTSSW | soluble |
| MGSDKIHHHHHHMSTPSPHCALCGIALGERLCRDSEGKSPAFCPTQNFSEIKEENSALYEGETKRFAKNAAIQEASCYEGREQGYAHLRPAKPRIEEIIEFAQKMGYQKLGLAFCMGLRNEAKAVELLLQKRGFEVVSVICKVGNSDKSTLGIDEEDKLIPHTPEAMCDPLLQARLLNESQTDFNIMLGLCVGHDSLFLKASEALCTVFAVKDRLLGHNPLAAIYTLESYYRSLKEG | not soluble |
| AIAEHKEVVLLLLLFLKSGQGEPLDDYVNTQGPSLFSVTKKQLGAGSREECAAKCEEDKEFTCRAFQYHSKEQQCVIMAENRKSSIIIRMRDAVLFEK | soluble |
| MAHHHHHHMKRLIQSLQHFSVTSSEHVELFSKITLRDFGFYVSDADAMRYVADEAYSIAERAFQLENALHQHRLSASTAQVSPMAWKSSSNDTVGCSTLYQDEAVTLCWFVLPPGKVLPLHDHPGMTVWQRAMHGRLHLCSITREAVSQTSTGASTAPINGTVVFDGELDGVGDAIPASDVLGFTPTDGDGGGMLHEIRNIDATQPALFVDIISPPYNQASSSMVCGYYTAEPLNATATLLPALAADCGVRHQLKAGDKVRLRPRTNYSGPAMNAFLHVV | not soluble |
| QFLFSMSTGPFICTVKDNQVFVANLPWTMLEGDDIQVGKEFAARVEDCTNVKHDMAPTCTKPPPFCGPQDMKMFNFVGCSVLGNKLFIDQKYVRDLTAKDHAEVQTFREKIAAFEEQQENQPPSSGMPHGAVPAGGLSPPPPPSFCTVQ | soluble |
| MGSDKIHHHHHHEKKDKKENDTSAVQATETDCTAAELVTTEPEGEITISEMIDQRIKEEGKIMIYRMCIAESNTPVEITEDLKVKIISYDGDKLKGYKNPDDFLMETRLGDIIHNKVDYSTYNIGTYGGNWKRHRYVSGGDEKYVEEEGYVQREITTDDSGNNAQLETLYSYSKGTLYSRDAGSKEWNQTEKEDSLDIVSFGTFERIKLDGKTYMTFCVRDNLNLIEYDIIPDNKFTENKTVVYDTPGTEKTTVNTVDYLKEYQAVPKEELEQMIVFPGSKKAESSQAAD | not soluble |
| MGHHHHHHHHHHSSGHIDDDDKHMTSLLSQFVSKTDFESYEDFQENFKILVPENFNFAYDVVDVYARDSPEKLAMIWCDDYGNEKIFTFKDLKYYSDKAANFFVKHGIGKGDYVMLTLKSRYDFWYCMLGLHKLGAIAVPATHMLKTRDIVYRIEKAGLKMIVCIAEDDVPEQVDEAHAECGDIPLKKAKVGGDVLEGWIDFRKELEESSPIFERPTGEVSTKNEDICLVYFSSGTAGFPKMVEHDNTYPLGHILTAKYWQNVEDDGLHYTVADSGWGKCVWGKLYGQWIAGCAVFVYDYDRFEAKNMLEKASKYGVTTFCAPPTIYRFLIKEDLSHYNFSTLKYAVVAGEPLNPEVFNRFLEFTGIKLMEGFGQTETVVTIATFPWMEPKPGSIGKPTPGYKIELMDRDGRLCEVGEEGEIVINTMEGKPVGLFVHYGKDPERTEETWHDGYYHTGDMAWMDEDGYLWFVGRADDIIKTSGYKVGPFEVESALIQHPAVLECAITGVPDPVRGQVIKATIVLTKDYTPSDSLKNELQDHVKNVTAPYKYPRIIEFVPELPKTISGKIRRVEIRDKDQSQ | soluble |
| MAHHHHHHSLSFSCPLCHQPLSREKNSYICPQRHQFDMAKEGYVNLLPVQHKRSRDPGDSAEMMQARRAFLDAGHYQPLRDAIVAQLRERLDDKATAVLDIGCGEGYYTHAFADALPEITTFGLDVSKVAIKAAAKRYPQVTFCVASSHRLPFSDTSMDAIIRIYAPCKAEELARVVKPGGWVITATPGPRHLMELKGLIYNEVHLHAPHAEQLEGFTLQQSAELCYPMRLRGDEAVALLQMTPFAWRAKPEVWQTLAAKEVFDCQTDFNIHLWQRSYEG | soluble |
